What is called Kd is the concentration at which binding is half-saturated. A lower Kd goes with a tighter complex. Usually IC50 stands for the concentration needed to halve the response being measured.

Numbered stars: 1 amine (or outer) side, 2 acyl side, 3 side chain; on linkers, the order of the positions; unused ones are H or OH. Square brackets hold non-standard residues; d marks the D form. Ends that are not written are not given here. * marks the point of attachment. thBuK = N^ε-thiobutyryl-lysine, CCCC(=S)NCCCC[C@H](N[*:1])C(=O)[*:2]; Crotonyl(E) = C/C=C/C(=O)*; Abu = CC[C@H](N)C(=O)O A value given as a limit tells only on which side of the number the result lay.

These results are taken from patent US12371817 (TEXAS A AND M UNIVERSITY SYSTEM, dated 2025).

The target in one assay is T1, ENL (UniProt Q03111 1-148, limits assumed).
T1 construct: also called ENL protein
T1 sequence (looked up): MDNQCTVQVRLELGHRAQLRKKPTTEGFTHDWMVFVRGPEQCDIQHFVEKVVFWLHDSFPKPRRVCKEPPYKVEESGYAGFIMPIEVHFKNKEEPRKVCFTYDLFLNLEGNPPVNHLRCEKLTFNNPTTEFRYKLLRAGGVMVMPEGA
Nature of the assay: fluorescence polarization, 5-FAM-conjugated peptide binding to ENL.

The target of assay [1] is T2, recombinant human sirtuin 2 (His6-SIRT2) (human, UniProt Q8IXJ6 1-389).
T2 chain: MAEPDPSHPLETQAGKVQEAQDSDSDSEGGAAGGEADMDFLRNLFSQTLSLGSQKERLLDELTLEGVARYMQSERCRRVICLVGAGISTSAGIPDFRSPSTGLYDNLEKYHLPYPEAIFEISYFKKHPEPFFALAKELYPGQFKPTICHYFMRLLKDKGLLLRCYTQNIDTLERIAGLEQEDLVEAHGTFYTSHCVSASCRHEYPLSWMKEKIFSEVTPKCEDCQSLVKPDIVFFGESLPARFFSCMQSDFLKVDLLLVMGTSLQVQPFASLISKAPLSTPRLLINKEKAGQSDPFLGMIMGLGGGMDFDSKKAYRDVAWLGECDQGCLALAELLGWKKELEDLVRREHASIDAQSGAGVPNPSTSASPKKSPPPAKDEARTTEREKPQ
Nature of the assay: deacetylase inhibition.

The target of assay [2] is T3, recombinant human sirtuin 2 (His6-SIRT2) (human, UniProt Q8IXJ6 1-389).
T3 sequence (looked up): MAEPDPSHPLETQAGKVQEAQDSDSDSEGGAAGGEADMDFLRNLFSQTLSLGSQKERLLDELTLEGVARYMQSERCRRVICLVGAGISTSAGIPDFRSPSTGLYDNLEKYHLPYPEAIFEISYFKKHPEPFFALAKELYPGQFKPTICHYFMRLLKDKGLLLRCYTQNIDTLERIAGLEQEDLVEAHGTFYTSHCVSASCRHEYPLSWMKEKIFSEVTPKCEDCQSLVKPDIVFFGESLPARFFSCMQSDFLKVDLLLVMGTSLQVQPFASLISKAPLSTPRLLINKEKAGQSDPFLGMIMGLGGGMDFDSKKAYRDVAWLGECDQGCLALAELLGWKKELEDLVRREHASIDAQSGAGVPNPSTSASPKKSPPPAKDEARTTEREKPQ
Put plainly: cell-based or functional assay.

For assay [3], the target named is T4, human sirtuin 3 (GST-SIRT3) (human, UniProt Q9NTG7 102-399).
T4 sequence (looked up): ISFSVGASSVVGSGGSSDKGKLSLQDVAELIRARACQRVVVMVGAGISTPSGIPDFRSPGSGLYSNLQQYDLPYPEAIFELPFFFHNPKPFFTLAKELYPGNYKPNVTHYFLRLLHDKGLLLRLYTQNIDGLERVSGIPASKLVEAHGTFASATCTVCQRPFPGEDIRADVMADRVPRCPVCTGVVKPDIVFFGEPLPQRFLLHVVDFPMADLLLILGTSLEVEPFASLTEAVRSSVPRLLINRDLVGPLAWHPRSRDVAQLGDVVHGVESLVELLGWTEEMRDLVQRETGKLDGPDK
Nature of the assay: cell-based or functional assay.

Assay [4] concerns the target T5, human sirtuin 1 (His6-SIRT1) (human, UniProt Q96EB6 1-747).
T5 sequence (looked up): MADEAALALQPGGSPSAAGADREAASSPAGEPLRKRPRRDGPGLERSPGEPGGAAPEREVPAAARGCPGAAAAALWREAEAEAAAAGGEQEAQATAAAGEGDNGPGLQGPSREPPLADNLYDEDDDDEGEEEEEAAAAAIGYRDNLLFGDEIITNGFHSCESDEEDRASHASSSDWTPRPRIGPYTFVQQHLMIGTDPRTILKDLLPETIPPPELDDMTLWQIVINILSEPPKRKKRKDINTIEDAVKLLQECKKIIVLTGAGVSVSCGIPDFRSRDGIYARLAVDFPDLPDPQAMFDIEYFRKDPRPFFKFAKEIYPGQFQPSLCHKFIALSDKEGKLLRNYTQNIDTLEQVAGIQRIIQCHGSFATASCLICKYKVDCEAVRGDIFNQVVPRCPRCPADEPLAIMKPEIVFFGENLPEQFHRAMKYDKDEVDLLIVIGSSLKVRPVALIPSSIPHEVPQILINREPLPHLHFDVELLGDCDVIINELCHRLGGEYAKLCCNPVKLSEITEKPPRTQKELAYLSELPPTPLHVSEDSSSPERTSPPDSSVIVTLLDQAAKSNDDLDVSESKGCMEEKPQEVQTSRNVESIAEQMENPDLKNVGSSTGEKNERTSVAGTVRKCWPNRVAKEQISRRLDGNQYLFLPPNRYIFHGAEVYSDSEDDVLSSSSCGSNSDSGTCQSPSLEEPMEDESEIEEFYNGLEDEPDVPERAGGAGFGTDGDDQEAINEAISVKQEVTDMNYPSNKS
Put plainly: cell-based or functional assay.

B1: 5-FAM-conjugated 7CrKEnl1 (peptide)
peptide: DIWCFK(Crotonyl(E))G
modifications: also: 5-FAM conjugated, site not given here
Take B1: the Kd with ENL is 94 nM.

B2: S2P04 (Abu)-5 (NH2-ZTVXI-NH2, Z is aminobutyric acid) (peptide)
peptide: H-[Abu]TV[thBuK]I-NH2
SMILES: CCCC(=S)NCCCC[C@H](NC(=O)[C@@H](NC(=O)[C@@H](NC(=O)[C@@H](N)CC)[C@@H](C)O)C(C)C)C(=O)N[C@H](C(N)=O)[C@@H](C)CC
As to B2, in assay [1], the 50% inhibitory concentration (IC50) was 119 nM.

B3: S2P04 (NH2-TCTVXIG-NH2), synthesized with N^ε-thiobutyryl-lysine (thBuK) in place of BuK (peptide)
peptide: H-TCTV[thBuK]IG-NH2
SMILES: CCCC(=S)NCCCC[C@H](NC(=O)[C@@H](NC(=O)[C@@H](NC(=O)[C@H](CS)NC(=O)[C@@H](N)[C@@H](C)O)[C@@H](C)O)C(C)C)C(=O)N[C@H](C(=O)NCC(N)=O)[C@@H](C)CC
B3: the “fold more potent than TB (sirtuin inhibition)” value in assay [2] was not below 33 fold. Further, in assay [3], the “fold by which SIRT2 is inhibited more potently than SIRT3” value was 152 fold and the “fold more potent than TB (sirtuin inhibition)” value was not below 33 fold. Also, in assay [4], the “fold by which SIRT2 is inhibited more potently than SIRT1” value is 2.7 fold and the “fold more potent than TB (sirtuin inhibition)” value was not below 33 fold. Moreover, the concentration for half-maximal inhibition (IC50) in assay [1] turned out to be 92 nM.

B4: S2P03 (NH2-CTVXTSL-NH2), synthesized with N^ε-thiobutyryl-lysine (thBuK) in place of BuK (peptide)
peptide: H-CTV[thBuK]TSL-NH2
SMILES: CCCC(=S)NCCCC[C@H](NC(=O)[C@@H](NC(=O)[C@@H](NC(=O)[C@@H](N)CS)[C@@H](C)O)C(C)C)C(=O)N[C@H](C(=O)N[C@@H](CO)C(=O)N[C@@H](CC(C)C)C(N)=O)[C@@H](C)O
On to B4, for which the IC50 in assay [1] came out at 68 nM.

B5: S2P07 (NH2-CTFXVPT-NH2), synthesized with N^ε-thiobutyryl-lysine (thBuK) in place of BuK (peptide)
peptide: H-CTF[thBuK]VPT-NH2
SMILES: CCCC(=S)NCCCC[C@H](NC(=O)[C@H](Cc1ccccc1)NC(=O)[C@@H](NC(=O)[C@@H](N)CS)[C@@H](C)O)C(=O)N[C@H](C(=O)N1CCC[C@H]1C(=O)N[C@H](C(N)=O)[C@@H](C)O)C(C)C
B5: the half-inhibitory concentration (IC50) in assay [1] was 101 nM.

B6: 5-FAM-conjugated 7CrKEnl2 (peptide)
peptide: SK(Crotonyl(E))DIWCF
modifications: also: 5-FAM conjugated, site not given here
In turn, B6 returned a Kd with ENL of 90 nM. This counts as double-digit nanomolar.

B7: Ac-S2P04-5 (Ac-CTVXI-NH2) (peptide)
peptide: Ac-CTV[thBuK]I-NH2
SMILES: CCCC(=S)NCCCC[C@H](NC(=O)[C@@H](NC(=O)[C@@H](NC(=O)[C@H](CS)NC(C)=O)[C@@H](C)O)C(C)C)C(=O)N[C@H](C(N)=O)[C@@H](C)CC
Regarding B7, the IC50 in assay [1] turned out to be 191 nM.

B8: S2P04-5, truncated version of S2P04 containing only the five residues of the consensus motif (peptide)
peptide: CTV[thBuK]I-NH2
modifications: N-terminus assumed
SMILES: CCCC(=S)NCCCC[C@H](NC(=O)[C@@H](NC(=O)[C@@H](NC(=O)[C@@H](N)CS)[C@@H](C)O)C(C)C)C(=O)N[C@H](C(N)=O)[C@@H](C)CC
As for B8, the “IC50, inhibition of SIRT2 (fluorogenic sirtuin substrate assay)” value in assay [2] turned out to be 136 nM.
